Key:
Experiment in all cases: purified protein
Format in all cases: biochemical, Dehalococcoides mccartyi
purified protein [1] = substrate: NC(=O)c1ccc[n+]([C@@H]2O[C@H](COP(=O)(O)OP(=O)(O)OC[C@H]3O[C@@H](n4cnc5c(N)ncnc54)[C@H](O)[C@@H]3O)[C@@H](O)[C@H]2O)c1; details: D-isocitric acid as co-substrate (1 mM in standard assay), 10 mM MgCl2, 50 mM Tris-HCl pH 7.5 (standard assay; kinetics at selected pH), 30 °C, varied: cofactor
purified protein [2] = substrate: O=C(O)C[C@H](C(=O)O)[C@@H](O)C(=O)O; details: 0.3 mM NADP+, 10 mM MgCl2, 50 mM Tris-HCl pH 7.5 (standard assay; kinetics at selected pH), 30 °C
purified protein [3] = substrate: NC(=O)c1ccc[n+]([C@@H]2O[C@H](COP(=O)(O)OP(=O)(O)OC[C@H]3O[C@@H](n4cnc5c(N)ncnc54)[C@H](OP(=O)(O)O)[C@@H]3O)[C@@H](O)[C@H]2O)c1; details: D-isocitric acid as co-substrate (1 mM in standard assay), 10 mM MgCl2, 50 mM Tris-HCl pH 7.5 (standard assay; kinetics at selected pH), 30 °C, varied: cofactor

B1: DmIDH (KB1_0495) (Dehalococcoides mccartyi CBDB1) (protein)
chain: MYHNVTLIPGDGIGPEISEATRRVLEATGVKFNWEVVNAGADVVAEYGTPLPDMVLESIRKNKVAIKGPVTTPVGSGFRSVNVGMRKALNLYTCLRPCKTYPGVPSRYDNVDIVIVRENMEDLYAGIEFEKGSAEALRLIEFIKENKKVEIRTDSGISIKPISVFGTERIFRWAFKYAKDNNRKKVTAVHKANIMKYSDGLFLAVGRKVAEEYPEIEFEDRIVDNMTMQLVKTPTQFDILVCPNLYGDILSDLCAGLVGGLGVAPGANIGDEYALFEPTHGSAPKYKGLNKVNPMAMMLSGVLMLRYLKEEKAADKLENAIAAVIAEGKSVTYDMLSPDKQAVAVGTSQVADAIIAKMK
notes: recombinant, N-terminal 6xHis tag with TEV site (modified pET-15b), E. coli BL21(DE3), Ni-NTA and gel filtration
- Km (purified protein [1]): 120 ± 40 µM
- Vmax (purified protein [1]): 0.32 µmol/min/mg
- kcat (purified protein [1]): 0.22 ± 0.03 s⁻¹
- kcat/Km (purified protein [1]): 2000 ± 1000 M⁻¹ s⁻¹
- Km (purified protein [2]): 110 ± 10 µM
- Vmax (purified protein [2]): 21.3 µmol/min/mg
- kcat (purified protein [2]): 15 ± 1 s⁻¹
- kcat/Km (purified protein [2]): 139600 ± 1000 M⁻¹ s⁻¹
- Km (purified protein [3]): 27 ± 20 µM
- Vmax (purified protein [3]): 20.8 µmol/min/mg
- kcat (purified protein [3]): 14.6 ± 1 s⁻¹
- kcat/Km (purified protein [3]): 540000 ± 1000 M⁻¹ s⁻¹
